For one protein, Km, kcat and kcat/Km results are on record in US6949522B2, “β-2′- or 3′-halonucleosides” (Pharmasset, Inc., priority 2001, dated 2005).

Substrate in this series: Nc1ncnc2c1ncn2[C@@H]1O[C@H](CO)[C@@H](O)[C@H]1O
Description: purified protein, by the assay type. The note with it: other: 25° C., phosphate buffer pH 7.4, substrate of ADA.
Description: Assays were performed at 25° C. in phosphate buffer solution (pH 7.4) with substrate concentrations in the range of 15-100 μM and with 0.15 unit of adenosine deaminase (EC.3.5.4.4. from calf intestinal mucosa). The assays were monitored with a UV spectrometer at 265 nm. […] The concentration (ct) of each substrate at a certain time (t) was calculated from the absorbance (At) at that time (t), where it was assumed that the total change of absorbance (A0−A∞) was directly related to the disappearance of the substrate.^35 Initial hydrolysis rates for each substrate concentration were measured manually through graphical curve fitting of the concentration versus time data for reaction of each substrate. From Lineweaver-Burke plot of these initial rates, Vmax (maximum velocity) and KM (Michaelis constant) were obtained for each substrate and kcat was also calculated with 0.15 unit of the enzyme (M.W. 33,000) in 2 mL of buffer solution.

B1: adenosine deaminase (EC.3.5.4.4. from calf intestinal mucosa) (Bos taurus) (protein)
chain: MAQTPAFNKPKVELHVHLDGAIKPETILYYGRKRGIALPADTPEELQNIIGMDKPLSLPEFLAKFDYYMPAIAGCREAVKRIAYEFVEMKAKDGVVYVEVRYSPHLLANSKVEPIPWNQAEGDLTPDEVVSLVNQGLQEGERDFGVKVRSILCCMRHQPSWSSEVVELCKKYREQTVVAIDLAGDETIEGSSLFPGHVKAYAEAVKSGVHRTVHAGEVGSANVVKEAVDTLKTERLGHGYHTLEDATLYNRLRQENMHFEVCPWSSYLTGAWKPDTEHPVVRFKNDQVNYSLNTDDPLIFKSTLDTDYQMTKNEMGFTEEEFKRLNINAAKSSFLPEDEKKELLDLLYKAYGMPSPASAEQCL
Usually Km stands for the substrate concentration at which the rate is half of its maximum. The term kcat denotes the number of substrate molecules converted per active site and unit of time at saturation. Broadly, the kcat/Km is the second-order rate constant that governs catalysis at low substrate concentration. Regarding B1, the Km was 24.5 µM, the kcat was 76.4 s⁻¹ and the kcat/Km is 3.1e+06 M⁻¹ s⁻¹.
